US20240252614A1 (Pfizer, published 2024)

Experiments:
PIV1014 = target: T1, PIV1014 (PIV1); experiment: BLI, no stress;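 further: binding of thermally stressed PIV1 F mutant supernatant to mAb on AHC biosensors for 5 min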
T1 construct: Q92C-G134C
Experimental: (§1) All measurements were conducted at 30° C. temperature in 96-well black plates (Corning, Corning, NY) with a final volume of 240 μL per well at a constant agitation rate of 1000 RPM.
(§2) Conformation integrity of PIV1 F protein mutants were evaluated by a thermal stress experiment. Crude cell culture supernatants were normalized based on the results of the titer quantitation and then incubated for 1 hour at room temperature and two higher temperatures. For the initial testing of PIV1 mutants, the two temperatures were 50° C. and 53° C. […] Anti-Human IgG Fc Capture (AHC) biosensors were first equilibrated in PB for before being dipped into more PB to establish the initial baseline. […] The mAb-bound biosensors were then dipped into the thermal stresses cell culture supernatants for 5 minutes.

PIV1023 = target: T2, PIV1023 (PIV1); experiment: BLI, no stress;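 further: binding of thermally stressed PIV1 F mutant supernatant to mAb on AHC biosensors for 5 min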
T2 construct: A466L
Experimental: as §1, §2

PIV1024 = target: T3, PIV1024 (PIV1); experiment: BLI, no stress;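 further: binding of thermally stressed PIV1 F mutant supernatant to mAb on AHC biosensors for 5 min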
T3 construct: A466V
Experimental: as §1, §2

PIV1026 = target: T4, PIV1026 (PIV1); experiment: BLI, no stress;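 further: binding of thermally stressed PIV1 F mutant supernatant to mAb on AHC biosensors for 5 min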
T4 construct: S473V
Experimental: as §1, §2

PIV1027 = target: T5, PIV1027 (PIV1); experiment: BLI, no stress
T5 construct: S473L
Experimental: as §1, §2

PIV1028 = target: T6, PIV1028 (PIV1); experiment: BLI, no stress
T6 construct: A480L
Experimental: as §1, §2

PIV1030 = target: T7, PIV1030 (PIV1); experiment: BLI, no stress
T7 construct: A466L, S473A
Experimental: as §1, §2

PIV1031 = target: T8, PIV1031 (PIV1); experiment: BLI, no stress
T8 construct: A466L, S473L
Experimental: as §1, §2

PIV1033 = target: T9, PIV1033 (PIV1); experiment: BLI, no stress
T9 construct: T198A
Experimental: as §1, §2

PIV1036 = target: T10, PIV1036 (PIV1); experiment: BLI, no stress
T10 construct: G134A
Experimental: as §1, §2

PIV1039 = target: T11, PIV1039 (PIV1); experiment: BLI, no stress
T11 construct: A128P
Experimental: as §1, §2

[1] = target: T12, stabilized hMPV F protein trimer in pre-fusion conformation (human metapneumovirus); experiment: BLI, mAb captured, F protein at 50 nM
T12 construct: also called preF-hMPV; hMPV pre-fusion F protein

hMPV047 = target: T13, hMPV047 (hMPV A, UniProt Q6WB98 19-102); experiment: BLI, 50C stress
T13 construct: L141C-A159C
Experimental: (§3) The OCTET HTX (Sartorius, Gottingen, Germany) instrument was used to evaluate the expression and conformational integrity for each mutant. All measurements were conducted at 30° C. temperature in 96-well black plates (Corning, Corning, NY) with a final volume of 240 μL per well at a constant agitation rate of 1000 RPM.
(§4) Conformation integrity of hMPV A F protein mutants were evaluated by thermal stress experiments. Crude cell culture supernatants were normalized based on the results of the titer quantitation and then incubated for 1 hour at room temperature and two higher temperatures. […] Anti-Human IgG Fc Capture (AHC) biosensors were first equilibrated in PB before being dipped into more PB to establish the initial baseline. […] The mAb-bound biosensors were then dipped into the thermal stressed cell culture supernatants for 5 minutes. The kinetics analysis was done by OCTET data analysis software (version 12.0, Sartorius) based on curve fitting of the entire associate step.

hMPV048 = target: T14, hMPV048 (hMPV A, UniProt Q6WB98 19-102); experiment: BLI, 50C stress
T14 construct: L141C-A161C
Experimental: as §3, §4

hMPV049 = target: T15, hMPV049 (hMPV A, UniProt Q6WB98 19-102); experiment: BLI, 50C stress
T15 construct: E146C-T160C
Experimental: as §3, §4

hMPV050 = target: T16, hMPV050 (hMPV A, UniProt Q6WB98 19-102); experiment: BLI, 50C stress
T16 construct: V148C-L158C
Experimental: as §3, §4

hMPV052 = target: T17, hMPV052 (hMPV A, UniProt Q6WB98 19-102); experiment: BLI, 50C stress
T17 construct: L66P
Experimental: as §3, §4

hMPV053 = target: T18, hMPV053 (hMPV A, UniProt Q6WB98 19-102); experiment: BLI, 50C stress
T18 construct: L110P
Experimental: as §3, §4

hMPV054 = target: T19, hMPV054 (hMPV A, UniProt Q6WB98 19-102); experiment: BLI, 50C stress
T19 construct: S132P
Experimental: as §3, §4

hMPV055 = target: T20, hMPV055 (hMPV A, UniProt Q6WB98 19-102); experiment: BLI, 50C stress
T20 construct: N145P
Experimental: as §3, §4

hMPV058 = target: T21, hMPV058 (hMPV A, UniProt Q6WB98 19-102); experiment: BLI, 50C stress
T21 construct: L187P
Experimental: as §3, §4

hMPV059 = target: T22, hMPV059 (hMPV A, UniProt Q6WB98 19-102); experiment: BLI, 50C stress
T22 construct: V449P
Experimental: as §3, §4

hMPV060 = target: T23, hMPV060 (hMPV A, UniProt Q6WB98 19-102); experiment: BLI, 50C stress
T23 construct: A459P
Experimental: as §3, §4

hMPV061 = target: T24, hMPV061 (hMPV A, UniProt Q6WB98 19-102); experiment: BLI, 50C stress
T24 construct: G106A
Experimental: as §3, §4

hMPV062 = target: T25, hMPV062 (hMPV A, UniProt Q6WB98 19-102); experiment: BLI, 50C stress
T25 construct: G121A
Experimental: as §3, §4

hMPV063 = target: T26, hMPV063 (hMPV A, UniProt Q6WB98 19-102); experiment: BLI, 50C stress
T26 construct: G239A
Experimental: as §3, §4

hMPV066 = target: T27, hMPV066 (hMPV A, UniProt Q6WB98 19-102); experiment: BLI, 50C stress
T27 construct: T49I
Experimental: as §3, §4

hMPV067 = target: T28, hMPV067 (hMPV A, UniProt Q6WB98 19-102); experiment: BLI, 50C stress
T28 construct: S149T
Experimental: as §3, §4

hMPV068 = target: T29, hMPV068 (hMPV A, UniProt Q6WB98 19-102); experiment: BLI, 50C stress
T29 construct: A159V
Experimental: as §3, §4

hMPV069 = target: T30, hMPV069 (hMPV A, UniProt Q6WB98 19-102); experiment: BLI, 50C stress
T30 construct: S291I
Experimental: as §3, §4

hMPV071 = target: T31, hMPV071 (hMPV A, UniProt Q6WB98 19-102); experiment: BLI, 50C stress
T31 construct: T365I
Experimental: as §3, §4

hMPV075 = target: T32, hMPV075 (hMPV A, UniProt Q6WB98 19-102); experiment: BLI, 50C stress
T32 construct: L473F
Experimental: as §3, §4

hMPV077 = target: T33, hMPV077 (hMPV A, UniProt Q6WB98 19-102); experiment: BLI, 50C stress
T33 construct: Q476C, S477C
Experimental: as §3, §4

hMPV A F WT Control = hMPV A F WT Control (hMPV A, UniProt Q6WB98 19-102); experiment: BLI, 50C stress
Experimental: as §3, §4

hMPV043 = target: T34, hMPV043 (hMPV A, UniProt Q6WB98 19-102); experiment: BLI, 50C stress
T34 construct: G366C-D454C
Experimental: as §3, §4

hMPV044 = target: T35, hMPV044 (hMPV A, UniProt Q6WB98 19-102); experiment: BLI, 50C stress
T35 construct: T411C-Q434C
Experimental: as §3, §4

hMPV045 = target: T36, hMPV045 (hMPV A, UniProt Q6WB98 19-102); experiment: BLI, 50C stress
T36 construct: I137C-A159C
Experimental: as §3, §4

hMPV046 = target: T37, hMPV046 (hMPV A, UniProt Q6WB98 19-102); experiment: BLI, 50C stress
T37 construct: A140C-S149C
Experimental: as §3, §4

hMPV107 = target: T38, hMPV107 (hMPV B, UniProt Q6WB98 19-102); experiment: BLI, 53C stress
T38 construct: S149T
Experimental: as §1
Conformation integrity of hMPV B F protein mutants were evaluated by a thermal stress experiment. Crude cell culture supernatants were normalized based on the results of the titer quantitation and then incubated for 1 hour at room temperature and two higher temperatures. For the testing of hMPV B single mutants, the two temperatures were 53° C. and 56° C. After the incubation, the protein mutants were probed with prefusion specific monoclonal antibody hMPV-2 by OCTET HTX. Anti-Human IgG Fc Capture (AHC) biosensors were first equilibrated in PB before being dipped into more PB for to establish the initial baseline. Biosensors were incubated with hMPV-2 before being equilibrated in PB to establish the experimental baseline. The mAb-bound biosensors were then dipped into the thermal stresses cell culture supernatants for 5 minutes.

B1: PIV1-8 mAb (antibody, V domains shown)
VH: QVQLVQSGAEVKKPGSSVKVSCEASGGTFSNYVISWVRQAPGQGLEWMGGIIPVFATAKYAQKFQGRVTIIADQSTNTAYLELSSLRSDDTAVYFCASVDSGGTWWDAFAIWGQGTMVTVSS
VL: QAVVTQPRSVSGSPGQAVTISCTGTSSDVGGYNYVSWYQHHPGKAPKLIIYDVTKRPSGVPDRFSGSKSGNTASLTISGLQTEYEADYYCCSYAGSYTLVFGGGTKLTVLG
notes: human IgG1; also called hPIV1-8 mAb; hPIV1-8
PIV1014
  Response Shift: 0.857 nm
PIV1023
  Response Shift: 0.831 nm
PIV1024
  Response Shift: 0.745 nm
PIV1026
  Response Shift: 0.606 nm
PIV1027
  Response Shift: 0.748 nm
PIV1028
  Response Shift: 0.579 nm
PIV1030
  Response Shift: 0.753 nm
PIV1031
  Response Shift: 0.766 nm
PIV1033
  Response Shift: -0.056 nm
PIV1036
  Response Shift: 0.753 nm
PIV1039
  Response Shift: -0.068 nm
[1]
  Binding response BLI: -0.051 nm

B2: hMPV-2 mAb (antibody, V domains shown)
VH: QVQLQQSGAEVKKPGASVKVSCKASGYTFTSYGISWVRQAPGQGLEWMGWISGYNGNTNYAQTFQGTFTMTTDTSTSTAYMELRRLRSGDTAVYYCARDRYYASGSYNGMDVWGQGTTVTVSS
VL: QSALTQPPSASGAPGQRVTVSCSGSSSNVGSSSVYWYQQLPGTAPKLLIYRNNQRPSGVPDRFSGSKSGTSASLAISGLRSEDEADYYCAAWDDSLSGWVFGGGTKLTVLG
notes: human IgG1
hMPV047
  Response Shift: -0.039 nm
hMPV048
  Response Shift: 0.439 nm
hMPV049
  Response Shift: 0.549 nm
hMPV050
  Response Shift: 0.142 nm
hMPV052
  Response Shift: 0.634 nm
hMPV053
  Response Shift: 0.566 nm
hMPV054
  Response Shift: 0.467 nm
hMPV055
  Response Shift: 0.194 nm
hMPV058
  Response Shift: 0.494 nm
hMPV059
  Response Shift: 0.455 nm
hMPV060
  Response Shift: 0.707 nm
hMPV061
  Response Shift: 0.561 nm
hMPV062
  Response Shift: 0.46 nm
hMPV063
  Response Shift: 0.685 nm
hMPV066
  Response Shift: 0.738 nm
hMPV067
  Response Shift: 0.654 nm
hMPV068
  Response Shift: 0.441 nm
hMPV069
  Response Shift: 0.465 nm
hMPV071
  Response Shift: 0.694 nm
hMPV075
  Response Shift: 0.653 nm
hMPV077
  Response Shift: 0.635 nm
hMPV A F WT Control
  Response Shift: 0.284 nm
hMPV043
  Response Shift: 0.567 nm
hMPV044
  Response Shift: 0.737 nm
hMPV045
  Response Shift: 0.124 nm
hMPV046
  Response Shift: 0.472 nm
hMPV107
  Response Shift: 0.846 nm
[1]
  Binding response BLI: 1.21 nm
